Laboratory results: patent JP2000166573A

Biological target: 抗Fasモノクローナル抗体HFE7A (mouse anti-human Fas monoclonal antibody HFE7A, from hybridoma FERM BP-5828)
Test: peptide (200 μg) preincubated with HFE7A (0.25 μg), then binding to WR19L12a cells by flow cytometry

結合阻害 (percent inhibition) [%]	Binder
60	KCRCKPNFFC [P110 (synthetic 10-residue peptide of the human Fas extracellular region)]
50	EINCTRTQNT [P100 (synthetic 10-residue peptide of the human Fas extracellular region)]
